# Assay results taken from patent US20260258390.
# T1: succinyl-L-Ala-L-Ala-L-Pro-L-Phe-p-nitroanilide (SEQ ID NO: 1)
# T1 chain: AAPF
# B1: N74D/S99G/V102W/S126G/N198A/N212S/T254P (variant of sequence SEQ ID NO: 5) (protein)
# chain: AQSVPWGISRVQAPAAHNRGLTGSGVKVAVLDTGISTHPDLNIRGGASFVPGEPSTQDGNGHGTHVAGTIAALDNSIGVLGVAPSAELYAVKVLGASGGGSWSSIAQGLEWAGNNGMHVANLSLGGPSPSATLEQAVNSATSRGVLVVAASGNSGAGSISYPARYANAMAVGATDQNNNRASFSQYGAGLDIVAPGVAVQSTYPGSTYASLSGTSMATPHVAGAAALVKQKNPSWSNVQIRNHLKNTATSLGSPNLYGSGLVNAEAATR
# B2: N74D/S99G/V102W/S126G/D191E/N198G/N212S/T254P (variant of sequence SEQ ID NO: 4) (protein)
# chain: AQSVPWGISRVQAPAAHNRGLTGSGVKVAVLDTGISTHPDLNIRGGASFVPGEPSTQDGNGHGTHVAGTIAALDNSIGVLGVAPSAELYAVKVLGASGGGSWSSIAQGLEWAGNNGMHVANLSLGGPSPSATLEQAVNSATSRGVLVVAASGNSGAGSISYPARYANAMAVGATDQNNNRASFSQYGAGLEIVAPGVGVQSTYPGSTYASLSGTSMATPHVAGAAALVKQKNPSWSNVQIRNHLKNTATSLGSPNLYGSGLVNAEAATR
# B3: wild-type subtilisin of Bacillus lentus (SEQ ID NO: 2) (protein)
# chain: AQSVPWGISRVQAPAAHNRGLTGSGVKVAVLDTGISTHPDLNIRGGASFVPGEPSTQDGNGHGTHVAGTIAALNNSIGVLGVAPSAELYAVKVLGASGSGSVSSIAQGLEWAGNNGMHVANLSLGSPSPSATLEQAVNSATSRGVLVVAASGNSGAGSISYPARYANAMAVGATDQNNNRASFSQYGAGLDIVAPGVNVQSTYPGSTYASLNGTSMATPHVAGAAALVKQKNPSWSNVQIRNHLKNTATSLGSTNLYGSGLVNAEAATR
# B4: N74D/S97D/S126G/P204I/T254P/S259N (variant of sequence SEQ ID NO: 6) (protein)
# chain: AQSVPWGISRVQAPAAHNRGLTGSGVKVAVLDTGISTHPDLNIRGGASFVPGEPSTQDGNGHGTHVAGTIAALDNSIGVLGVAPSAELYAVKVLGADGSGSVSSIAQGLEWAGNNGMHVANLSLGGPSPSATLEQAVNSATSRGVLVVAASGNSGAGSISYPARYANAMAVGATDQNNNRASFSQYGAGLDIVAPGVNVQSTYIGSTYASLNGTSMATPHVAGAAALVKQKNPSWSNVQIRNHLKNTATSLGSPNLYGNGLVNAEAATR
# B5: N74D/S101A/V102W (control variant of WO1995010591; sequence SEQ ID NO: 3) (protein)
# chain: AQSVPWGISRVQAPAAHNRGLTGSGVKVAVLDTGISTHPDLNIRGGASFVPGEPSTQDGNGHGTHVAGTIAALDNSIGVLGVAPSAELYAVKVLGASGSGAWSSIAQGLEWAGNNGMHVANLSLGSPSPSATLEQAVNSATSRGVLVVAASGNSGAGSISYPARYANAMAVGATDQNNNRASFSQYGAGLDIVAPGVNVQSTYPGSTYASLNGTSMATPHVAGAAALVKQKNPSWSNVQIRNHLKNTATSLGSTNLYGSGLVNAEAATR
# Target: T1, succinyl-L-Ala-L-Ala-L-Pro-L-Phe-p-nitro …
Protein,Km pH 8.6 (mM),Km pH 10 (mM),kcat pH 8.6 (% of wild-type) (% of wild-type),kcat pH 10 (% half-life of wild-type) (% of wild-type),kcat/Km pH 8.6 (% of wild-type) (% of wild-type),kcat/Km pH 10 (% wild-type)
B1,0.05 mM,0.09 mM,503,723,6360,10800 % wild-type
B2,0.11 mM,0.19 mM,579,719,3330,5100 % wild-type
B3,0.63 mM,1.34 mM,100,100,100,100 % wild-type
B4,0.66 mM,0.52 mM,55,37,51,97 % wild-type
B5,0.29 mM,0.33 mM,638,554,1390,2260 % wild-type
